Test results published in patent US20240392013A1 (STELEXIS THERAPEUTICS, published 2024).
Changes are numbered by the printed parent chain.

Legend:
[1] = molecular target: T1, recombinant human IL1RAP protein, extracellular domain His-tagged (Sino Biological, Cat #10121-H08H) (human, UniProt Q9NPH3 21-367); experiment: Octet BLI; mAb captured on anti-mouse IgG Fc sensor; huIL1RAP-His analyte
T1 construct: extracellular domain; Bought protein; The Octet analyte is printed as huIL1RAP-His (Sino Biological, lot MB08MA1301) without a catalogue number; also called huIL1RAP-His; hIL1RAP; not shown: His tag
T1 sequence (looked up): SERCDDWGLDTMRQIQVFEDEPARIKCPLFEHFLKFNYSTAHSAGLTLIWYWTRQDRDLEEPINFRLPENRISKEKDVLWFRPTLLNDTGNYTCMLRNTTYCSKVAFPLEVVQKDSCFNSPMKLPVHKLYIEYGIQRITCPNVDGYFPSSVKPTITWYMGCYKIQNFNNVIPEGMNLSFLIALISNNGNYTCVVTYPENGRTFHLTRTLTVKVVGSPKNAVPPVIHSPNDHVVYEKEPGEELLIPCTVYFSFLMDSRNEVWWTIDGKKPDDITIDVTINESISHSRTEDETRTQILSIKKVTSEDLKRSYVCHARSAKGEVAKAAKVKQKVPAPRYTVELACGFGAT
In short: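 Antibodies at 5 μg/ml were captured on anti-mouse IgG Fc biosensors; His-tagged human or cynomolgus IL1RAP extracellular domain served as analyte at 100, 50 and 25 nM in PBS kinetics buffer (0.1% BSA, 0.02% Tween-20). Association 120 s, dissociation 1200 s; KD (M) calculated from binding kinetics.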

[2] = molecular target: T2, IL1RAP-Fc protein (Sino Biological, Cat #10121-H02H), recombinant human IL1RAP extracellular domain Fc-tagged (human, UniProt Q9NPH3 21-367); experiment: cell-free competition ELISA: IL1RAP-Fc coated, mAb titrated, blocks binding of premixed IL1R1-His/IL1β complex
T2 construct: extracellular domain; not shown: Fc tag
T2 sequence (looked up): T1 sequence (looked up)
Protocol: High-binding 96-well plates were coated with IL1RAP-Fc protein (Sino Biological, Cat #10121-H02H) at concentration of 4 µg/ml and incubated overnight at 4° C. After 3× washes with 0.05% Tween-20 in PBS, pH 7.5, plates were blocked with 1% BSA in PBS for 1 hour at room temperature. Following, wells were incubated with each antibody at concentration of 50 nM for 1 hour at room temperature. […] IL1R1/IL1β complex was preincubated in assay buffer (1% BSA in PBS, pH 7.5) for 20 min at room temperature. After 3× washes, plates were incubated with anti-His HRP detection antibody (Medna, Cat #D8212, […]) for 1 hour at room temperature. Following 5× washes, SuperPico chemiluminescent substrate was applied to wells and signal was read on Spectramax M5.

[3] = molecular target: T3, IL1RAP on HEK-Blue IL1β / HEK-Blue IL33 reporter cells (UniProt Q9NPH3 21-570, limits assumed); experiment: cell-based or functional assay
T3 sequence (looked up): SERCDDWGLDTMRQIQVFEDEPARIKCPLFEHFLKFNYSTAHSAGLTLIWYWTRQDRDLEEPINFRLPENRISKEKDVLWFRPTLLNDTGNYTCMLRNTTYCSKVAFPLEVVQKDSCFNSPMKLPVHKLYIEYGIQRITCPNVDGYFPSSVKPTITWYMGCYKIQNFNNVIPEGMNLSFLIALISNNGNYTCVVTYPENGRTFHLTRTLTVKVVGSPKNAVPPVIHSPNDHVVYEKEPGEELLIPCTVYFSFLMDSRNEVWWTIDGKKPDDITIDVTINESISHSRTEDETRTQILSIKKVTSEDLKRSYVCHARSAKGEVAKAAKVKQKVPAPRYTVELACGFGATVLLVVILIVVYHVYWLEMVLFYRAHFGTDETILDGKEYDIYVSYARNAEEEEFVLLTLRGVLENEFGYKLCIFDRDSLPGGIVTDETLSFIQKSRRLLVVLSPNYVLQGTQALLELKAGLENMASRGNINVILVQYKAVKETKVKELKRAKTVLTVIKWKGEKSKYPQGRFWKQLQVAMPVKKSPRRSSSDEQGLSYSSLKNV

B1: STLX2012 (antibody, V domains shown)
VH: QVQLLQSGAEVKKPGSSVKVSCKASGGTFSIYAIDWVRQAPGQGLEWMGGIIPIFGTANSAQKFQGRVTITADKSTSTAYMELSSLRSEDTAVYYCARNGATSDAFDMWGQGTMVTVSS
VL: EIVLTQSPGTLSLSPGERATLSCRASLSVSSNYLAWFQQRPGQAPRLLIHGVSRRATGIPDRFSGSGSGTDFTLTISRLEPEDFAVYYCQQYGSSPLTFGGGTKVEIK
notes: Purified from hybridoma of immunized Alivamab mice; intact IgG; captured on anti-mouse IgG Fc sensors in Octet; kappa light chain; also called 74804_12A21B
- Kd [1]: 0.934 nM
- Response [1]: 0.303
- koff [1]: 0.000287 s⁻¹
- kon [1]: 308000 M⁻¹ s⁻¹
- IC50 [2]: 0.824 nM
- IC50, HEK-BlueIL1β NFκB Reporter Assay [3]: 1.31e-09 M (implied; unit not printed)
- Max % Inhibition at 200 nM, HEK-BlueIL1β NFκB Reporter Assay [3]: 100%

B2: STLX2043 (antibody, V domains shown)
VH: B1 VH with A58E, K63N, V68I, S77N, M108I, S118F
VL: B1 VL with H50Y
notes: Purified from hybridoma of immunized Alivamab mice; intact IgG; captured on anti-mouse IgG Fc sensors in Octet; kappa light chain; also called 74804_43F04A
- Kd [1]: 0.425 nM
- Response [1]: 0.251
- koff [1]: 0.000149 s⁻¹
- kon [1]: 350000 M⁻¹ s⁻¹
- IC50 [2]: 0.804 nM
- IC50, HEK-BlueIL1β NFκB Reporter Assay [3]: 2.29e-09 M (implied; unit not printed)
- Max % Inhibition at 200 nM, HEK-BlueIL1β NFκB Reporter Assay [3]: 99%
